From patent publication US6127144, “Method for expression of proteins in bacterial host cells” (Cangene Corporation, dated 2000) come the findings set out here.

No end group written: not given here. *: point of attachment. CH2Cl = ClC* Some results are limits rather than exact numbers.

What is called kinact is the rate constant of inactivation at saturating inhibitor.

The target of assay [1] is T1, D-phenylalanyl-L-prolyl-L-arginine beta-napthylamide.
T1 sequence (peptide, D-phenylalanine at position 1; C-terminal beta-naphthylamide): FPR

The next assay addresses T2, GPM-bNA.
T2 sequence (peptide, C-terminal beta-naphthylamide): GPM

Assay [2] has as its target T3, L-alanyl-L-prolyl-L-phenylalanine beta-naphthylamide.
T3 sequence (peptide, C-terminal beta-naphthylamide): APF

In assay [3] the target is tripeptidyl aminopeptidase-S (Tap) of Streptomyces lividans 66 (Streptomyces lividans 66).
For assay [4], the target named is T4, tripeptidyl aminopeptidase-S (Tap) of Streptomyces lividans 66 (Streptomyces lividans 66).
T4 chain: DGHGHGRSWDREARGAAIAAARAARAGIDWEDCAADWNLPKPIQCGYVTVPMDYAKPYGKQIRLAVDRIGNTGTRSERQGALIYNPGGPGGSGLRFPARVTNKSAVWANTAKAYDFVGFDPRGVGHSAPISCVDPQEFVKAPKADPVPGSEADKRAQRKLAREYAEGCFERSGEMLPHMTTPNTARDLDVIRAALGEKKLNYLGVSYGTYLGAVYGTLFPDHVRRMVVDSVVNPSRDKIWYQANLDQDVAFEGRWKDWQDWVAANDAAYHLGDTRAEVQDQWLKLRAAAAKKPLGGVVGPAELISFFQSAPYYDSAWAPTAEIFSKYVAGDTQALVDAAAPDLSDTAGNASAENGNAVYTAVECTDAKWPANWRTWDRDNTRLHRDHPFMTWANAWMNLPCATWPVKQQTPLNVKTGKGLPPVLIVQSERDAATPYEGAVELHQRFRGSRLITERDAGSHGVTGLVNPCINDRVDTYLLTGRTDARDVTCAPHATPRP
In words: inactivation kinetics of purified Tap on ice, residual activity with APA-pNA (Example 8). As to the method: A stock solution of 1.1 uM Tap in 50 mM Tris-HCl, pH 8.0 was prepared. APACMK stock solutions of 11 uM, 13.8 uM, 17.3 uM, 21.7 uM, 27.0 uM, 54.0 uM, 108 uM, and 1.08 mM were prepared. The Substrate Solution was 50 mM Tris-HCl, pH 8.0, 0.8 mM APA-pNA. The inactivation was performed by placing 90 ul of Tap […] in a 1.5 ml Eppendorf tube on ice and adding 10 ul of water (uninhibited control) or 10 ul of APACMK. A 10 ul aliquot was removed immediately and was assayed by adding it to a cuvette containing 390 ul Substrate Solution at 22° C. The initial velocity was obtained from the change in absorbance at 405 nm during the first 10 seconds of the assay. Additional aliquots were removed at time points and assayed by the same method. At APACMK concentrations greater than 5.0 uM in the incubation, it was not possible to remove an aliquot from the incubation before 90% inactivation occurred.

“soluble SlpE secreted from AP6.SlpE (enzyme)” showed an A540, Boc-APARSPA-bNA assay on 20 µl cell-free broth in the assay with Boc-APARSPA-bNA of 0.084 A540.
With “soluble SlpD secreted from AP6.SlpD (enzyme)”, the A405, APA-bNA assay on 20 µl cell-free broth in the assay with APA-bNA came to 1.15 A405. Also, the A540, Boc-APARSPA-bNA assay on 20 µl cell-free broth with Boc-APARSPA-bNA turned out to be 0.278 A540.

B1: tripeptidyl aminopeptidase-S (Tap) of Streptomyces lividans 66 (enzyme)
chain: DGHGHGRSWDREARGAAIAAARAARAGIDWEDCAADWNLPKPIQCGYVTVPMDYAKPYGKQIRLAVDRIGNTGTRSERQGALIYNPGGPGGSGLRFPARVTNKSAVWANTAKAYDFVGFDPRGVGHSAPISCVDPQEFVKAPKADPVPGSEADKRAQRKLAREYAEGCFERSGEMLPHMTTPNTARDLDVIRAALGEKKLNYLGVSYGTYLGAVYGTLFPDHVRRMVVDSVVNPSRDKIWYQANLDQDVAFEGRWKDWQDWVAANDAAYHLGDTRAEVQDQWLKLRAAAAKKPLGGVVGPAELISFFQSAPYYDSAWAPTAEIFSKYVAGDTQALVDAAAPDLSDTAGNASAENGNAVYTAVECTDAKWPANWRTWDRDNTRLHRDHPFMTWANAWMNLPCATWPVKQQTPLNVKTGKGLPPVLIVQSERDAATPYEGAVELHQRFRGSRLITERDAGSHGVTGLVNPCINDRVDTYLLTGRTDARDVTCAPHATPRP
With B1, the Tripeptidyl Aminopeptidase Activity (A540 above background) (A540 above background) in assay [1] was 0.02; in the assay with GPM-bNA, > 3; in assay [2], > 3.

B2: L-alanyl-L-prolyl-L-alanine chloromethylketone (peptide)
peptide: Ala-Pro-Ala-CH2Cl
modifications: also: hydrochloride salt
On to B2, for which, in assay [3], the inactivation of Tap, residual activity assayed with APA-pNA is > 99% and the kinact is 0.14 min⁻¹. In assay [4], the Ki is 3.3 µM.
